In the Human Domainome abundance scans (Beltran et al. 2025):
± gives the uncertainty stated by the source.

B1: Peripheral plasma membrane protein CASK, residues 488 to 569; numbered along this chain, O14936 (parent)
chain: VRLVQFQKNTDEPMGITLKMNELNHCIVARIMHGGMIHRQGTLHVGDEIREINGISVANQTVEQLQKMLREMRGSITFKIVP

Variants of: B1
Experiment: abundance fitness (aPCA) (normalised: wild type 0, dead -1); higher = more abundant; growth selection in yeast, the domain comes from the species named
Conditions: Homo sapiens

Point of comparison: VRLVQFQKNTDEPMGITLKMNELNHCIVARIMHGGMIHRQGTLHVGDEIREINGISVANQTVEMLQKMLREMRGSITFKIVP, abundance fitness -0.042 ± 0.028. Against it:
- VRLVQFQKNTDEPMGITLKMNELNHCIVARIMHGGMIHRQGTLHHGDEIREINGISVANQTVEQLQKMLREMRGSITFKIVP — within error, 0.016 ± 0.18
- VRLVQFQKNTDEPMGGTLKMNELNHCIVARIMHGGMIHRQGTLHVGDEIREINGISVANQTVEQLQKMLREMRGSITFKIVP — lower, -0.98 ± 0.075
- VRLVQFQKNTDEPMGITLKMNELNHCIVARIMHGGMIHRQGTLIVGDEIREINGISVANQTVEQLQKMLREMRGSITFKIVP — lower, -0.188 ± 0.049
- VRLVQFQKNTDEPMGITDKMNELNHCIVARIMHGGMIHRQGTLHVGDEIREINGISVANQTVEQLQKMLREMRGSITFKIVP — lower, -1.13 ± 0.23
- VRLVQFCKNTDEPMGITLKMNELNHCIVARIMHGGMIHRQGTLHVGDEIREINGISVANQTVEQLQKMLREMRGSITFKIVP — within error, 0.021 ± 0.035
- VRLVQFQKNTDEPMGITLKMNELNHCIVARIMHGGMIHRQGTLHVGDEIREINGISVANQTVEQLQKMLREMRGSITFKGVP — lower, -0.408 ± 0.071
- VRLVQFQKNTDEPMGITLKMNELNHCIVARIMHGGMIHRQGTLHVGDEIREINGISVANQTVEQLQKMLREMRGSLTFKIVP — lower, -0.112 ± 0.028
- VRLVQFQKNTDEPMGITLKMNELNHCIVARIMHGGMIHRQGTLHVGDEIREINGISVANQTVEQLQKMLREMRGSYTFKIVP — lower, -0.339 ± 0.074
- VRIVQFQKNTDEPMGITLKMNELNHCIVARIMHGGMIHRQGTLHVGDEIREINGISVANQTVEQLQKMLREMRGSITFKIVP — higher, 0.085 ± 0.064
- VRLVQFQKNTDEPMGITLKMNELNHCIVARIMHGGMIHSQGTLHVGDEIREINGISVANQTVEQLQKMLREMRGSITFKIVP — within error, -0.047 ± 0.026
- VRLVQFQKNTDEPMGITLKMNELNHCIVARIMHGGMIHYQGTLHVGDEIREINGISVANQTVEQLQKMLREMRGSITFKIVP — lower, -0.35 ± 0.048
- VRLVQFQKNTDEPMGITLKMNELNHCIVARIMHGGMIHRQGTLHVGDEIREINGISVTNQTVEQLQKMLREMRGSITFKIVP — within error, -0.017 ± 0.031
- VRLVQFQKNTDEPMGITLKMNELNHCIVARIMHGGMIHRQGALHVGDEIREINGISVANQTVEQLQKMLREMRGSITFKIVP — within error, 0.005 ± 0.024
- VRLVQFQKNTDEPMGITLKMNELNHCIVARIMHGGMIHRQGWLHVGDEIREINGISVANQTVEQLQKMLREMRGSITFKIVP — lower, -0.246 ± 0.027
- VRLVQFQKNTDEPMGITLKMNELNHCIVARIVHGGMIHRQGTLHVGDEIREINGISVANQTVEQLQKMLREMRGSITFKIVP — higher, 0.027 ± 0.034
- VRLVQFQKNTDEPMGITLKMNELNHCIVARIMHGGHIHRQGTLHVGDEIREINGISVANQTVEQLQKMLREMRGSITFKIVP — higher, 0.075 ± 0.061
- VRLVQFQKNTDEPMGITLKMNELNHCIVARIMHGGMIHRQGTLHVGDEIREINGIEVANQTVEQLQKMLREMRGSITFKIVP — within error, -0.018 ± 0.025
- VRLVQFQKNTDEPMGITLKMNELNHCIVARIMHGGMIHRQGTLHVGDEIREINGINVANQTVEQLQKMLREMRGSITFKIVP — within error, -0.032 ± 0.04
- VRLVQFQKNTDEPMGITLKMNELNHCIVFRIMHGGMIHRQGTLHVGDEIREINGISVANQTVEQLQKMLREMRGSITFKIVP — lower, -0.362 ± 0.13
- VRLVQFQKNTDEPMGITLKMNELNHCIVARIMHGGMIHRQGTLHVGDEIREINGISVANQHVEQLQKMLREMRGSITFKIVP — within error, -0.074 ± 0.041
- VRLVQFQKNTDEPMGITLKMNELNHCIVARIMHGGMIHRQGTLHVGDEIREINGISVANQWVEQLQKMLREMRGSITFKIVP — lower, -0.853 ± 0.051
- VRLVQFQKNTDEPMGITLKMNELNHCIVARIMHGGMIHRQGTLHVGDEIREINGISVANQMVEQLQKMLREMRGSITFKIVP — lower, -0.294 ± 0.039
- VRLVQFQKNTDEPMGITLKMNELNHCIVARIMHGGMIHRQGTLHVGDEIREINGISVANQTVEQLYKMLREMRGSITFKIVP — within error, -0.038 ± 0.051
- VRLVQFQKNTDEPMGITLKMNELNHCIVARIMHGGMIHRQGTLHVGDEIREINGISVANQTVEQLIKMLREMRGSITFKIVP — within error, -0.094 ± 0.04
- VRLVQFQKNTDEPMGITLKMNELYHCIVARIMHGGMIHRQGTLHVGDEIREINGISVANQTVEQLQKMLREMRGSITFKIVP — lower, -0.226 ± 0.043
- VRLVQFQKNTDEPMGITLKMNELNHCIVARIMHGGMIHRQGTLHVGDEIREINGISVANQTGEQLQKMLREMRGSITFKIVP — within error, -0.067 ± 0.019
- VRLVQFQKNTDEPMGITLKMNELNHCIVARIMHGGMIHRQGTLHVGDEIREINGISVANQTKEQLQKMLREMRGSITFKIVP — lower, -0.114 ± 0.032
- VRLVQFQKNTDEPMGITLKMNELNHCIVACIMHGGMIHRQGTLHVGDEIREINGISVANQTVEQLQKMLREMRGSITFKIVP — within error, -0.055 ± 0.062
- VDLVQFQKNTDEPMGITLKMNELNHCIVARIMHGGMIHRQGTLHVGDEIREINGISVANQTVEQLQKMLREMRGSITFKIVP — lower, -0.149 ± 0.054
- VRLVQFQKNTDEPMGITLKMNELNHCIVARIMHGGMIHRQGTLHVGDEIREINGISVANQTVEQLQKMLLEMRGSITFKIVP — within error, 0 ± 0.024
- VRLVQFQKNTDEPMGITLKMNELNHCIVARIMHGGMIHRQGTLHVGDEIREINGISVANQTVEQLQKMLMEMRGSITFKIVP — within error, -0.019 ± 0.031
- VRLVQFQKNTDEPMGITLKMNELNHCIVARIMHGGMIHRNGTLHVGDEIREINGISVANQTVEQLQKMLREMRGSITFKIVP — within error, -0.007 ± 0.041
- VRLVQFQKNTDYPMGITLKMNELNHCIVARIMHGGMIHRQGTLHVGDEIREINGISVANQTVEQLQKMLREMRGSITFKIVP — lower, -0.237 ± 0.07
- VRLVQFQKNTDEPMGITLKMNELNHCIVARIMHGGMIHRQGTLHVGDEIREINGISVAWQTVEQLQKMLREMRGSITFKIVP — lower, -0.157 ± 0.03
- VRLVQFQKNTDEPMGITLKMNELNHCIVARIMHGGMIHRQGTLHVGDEIREIGGISVANQTVEQLQKMLREMRGSITFKIVP — lower, -0.188 ± 0.03
- VRLVQFQKNTDEPMGITLKMNELNHCIVARIMHGGMIHRQGTNHVGDEIREINGISVANQTVEQLQKMLREMRGSITFKIVP — lower, -0.906 ± 0.15
- VRLVQFQKNTDEPMGITLKMNELNHCIVARIMHGGMIHRQGTPHVGDEIREINGISVANQTVEQLQKMLREMRGSITFKIVP — lower, -0.658 ± 0.06
- VRLVQFQKNTDEPMGITLKMNELNHCIVARIMHGGMIHRQGTLHVGDEIRELNGISVANQTVEQLQKMLREMRGSITFKIVP — within error, -0.115 ± 0.19
- VRLVQFQKNTDEPMGITLKMNELNHCIVARIMHGGMIHRQGTLHVGDEIREINGISVANQTVEQLQKMLREMRGSITFKIQP — within error, -0.001 ± 0.048
- VRLVQFQKNTDEPMGITLKMNELNHCTVARIMHGGMIHRQGTLHVGDEIREINGISVANQTVEQLQKMLREMRGSITFKIVP — within error, -0.021 ± 0.03
- VRLVQFQKNTDEPMGITLKMNELNHCSVARIMHGGMIHRQGTLHVGDEIREINGISVANQTVEQLQKMLREMRGSITFKIVP — lower, -0.17 ± 0.024
- VRLVQFQKNTDEPMGITLKMNELNHCIVARIMHGGMIHRQGTLHVGDEIREINGMSVANQTVEQLQKMLREMRGSITFKIVP — within error, 0.008 ± 0.034
- VRLVQFQKNTDEPMGITLKMNELNHCIVARIMHGGMIHRQGTLHVGDEIREINGGSVANQTVEQLQKMLREMRGSITFKIVP — lower, -0.124 ± 0.021
- VRLVQFQKNTDEPMGITLKMNELNHCIVARIMHGGMIHRQGTLHVGDEIREINGHSVANQTVEQLQKMLREMRGSITFKIVP — within error, -0.04 ± 0.041
- VRLVQFQKNTDEPMGITLKMNELNHCIVARIMHGGMIHRQGTLHVGDEIREINGISVANQTVEQLQYMLREMRGSITFKIVP — within error, -0.064 ± 0.047
- VRLVQFQKNTDEPMGITLKMNELNHCIVARIMHGGMIHRQGTLHVGDEIREINGISVANQTVEQLQMMLREMRGSITFKIVP — within error, -0.029 ± 0.034
- VRLVQFQKNTDEPMGITLKMNELNHCIVARIMHGGMIHRQGTLHVGDEIREINGISVANQTVERLQKMLREMRGSITFKIVP — within error, -0.066 ± 0.021
- VRLVQFQKNTDEPMGITLKMNELNHCIVARIMHGGMIHRQGTLHVGDEIREINGISVANQTVEELQKMLREMRGSITFKIVP — within error, -0.008 ± 0.026
- VRLVQFQKNTDEPMGITLKMNELNHCIVARIMCGGMIHRQGTLHVGDEIREINGISVANQTVEQLQKMLREMRGSITFKIVP — within error, -0.033 ± 0.039
- VRLVQFQKNTDEPMGITLKMNELNHCIVARIMDGGMIHRQGTLHVGDEIREINGISVANQTVEQLQKMLREMRGSITFKIVP — within error, -0.011 ± 0.044
- VRLVQFQKNTDEPMGITLKMNHLNHCIVARIMHGGMIHRQGTLHVGDEIREINGISVANQTVEQLQKMLREMRGSITFKIVP — within error, -0.037 ± 0.05
- VRLVQFQKNTDEPMGITLKMNELNHCIVARIMHGGMIHRQGTLHVGDEIREINGISVANQTVEQLQKMLREMRGSITGKIVP — lower, -0.886 ± 0.1
- VRLVQQQKNTDEPMGITLKMNELNHCIVARIMHGGMIHRQGTLHVGDEIREINGISVANQTVEQLQKMLREMRGSITFKIVP — lower, -0.589 ± 0.049
- VRLVQAQKNTDEPMGITLKMNELNHCIVARIMHGGMIHRQGTLHVGDEIREINGISVANQTVEQLQKMLREMRGSITFKIVP — within error, -0.065 ± 0.022
- VRLVQCQKNTDEPMGITLKMNELNHCIVARIMHGGMIHRQGTLHVGDEIREINGISVANQTVEQLQKMLREMRGSITFKIVP — within error, -0.01 ± 0.029
- VRLVQFQKNTDEPMGITLKMNELNHCIVARIMHGGMIHRQGTLHVGDEIREINGISCANQTVEQLQKMLREMRGSITFKIVP — within error, -0.046 ± 0.031
- VRLVQFQGNTDEPMGITLKMNELNHCIVARIMHGGMIHRQGTLHVGDEIREINGISVANQTVEQLQKMLREMRGSITFKIVP — lower, -0.242 ± 0.022
- VRLVQFQKNTDEPMGITLKMNELNHCIVARIMHGGMIHRQGTLHVGDEIREINGISVANQTVIQLQKMLREMRGSITFKIVP — within error, -0.108 ± 0.056
- VRLVQFQKNTDEPMGITLKMNELNHAIVARIMHGGMIHRQGTLHVGDEIREINGISVANQTVEQLQKMLREMRGSITFKIVP — within error, -0.067 ± 0.025
- VRLVQFQKNTDEPMGITLKMNELNHCIVARIMHGGMIHRQGTLHVGDEIREINGISVANQTVEQLQKMLREMHGSITFKIVP — within error, -0.044 ± 0.055
- VRLVQFQKNTDEPMGITLKMNELNHCIVARIMHGGMIHRQGTLHVGDEIREINGISVANQTVEQLQKMLREMAGSITFKIVP — within error, -0.082 ± 0.025
- VRLVQFQKNTDEPMGITLKMNELNHCIVARPMHGGMIHRQGTLHVGDEIREINGISVANQTVEQLQKMLREMRGSITFKIVP — lower, -0.791 ± 0.082
- CRLVQFQKNTDEPMGITLKMNELNHCIVARIMHGGMIHRQGTLHVGDEIREINGISVANQTVEQLQKMLREMRGSITFKIVP — within error, -0.056 ± 0.047
- VRLVQFQKNTDEPMGITLKMNELNHCIVARIMHGGMIHRQGTLHVGDEEREINGISVANQTVEQLQKMLREMRGSITFKIVP — lower, -0.992 ± 0.13
- VRLVQFQKNTDEPMGITLKMNELNHCIVARIMHGGMIHRQGTLHVGDEVREINGISVANQTVEQLQKMLREMRGSITFKIVP — within error, 0.001 ± 0.035
- VRLVQFQKNTDEPMGITLKMNELNHCIVARIMHGGMIHRQGTLHVGDEQREINGISVANQTVEQLQKMLREMRGSITFKIVP — lower, -1 ± 0.24
